Assays:
[1] = target: the molecule itself; assay: crystal structure; bLinS apo (25% w/v PEG3350) and co-crystallised with 2 mM FGPP (Morpheus D7, pH 7.5); space group I4, two molecules in the asymmetric unit
[2] = target: the molecule itself; assay: crystal structure; bCinS co-crystallised with 2 mM FNPP (Morpheus II A4, pH 6.5), also soaked with 2 mM FGPP; space group P1, two molecules in the asymmetric unit; interface analysed with PISA

Protein | binding result [1] | stoichiometry N [2]
linalool synthase from Streptomyces clavuligerus (enzyme, Streptomyces clavuligerus ATCC 27064, UniProt D5SL78 1-329, looked up) MQEFEFAVPAPSRVSPDLARARARHLDWVHAMDLVRGEEARRRYEFSCVADIGAYGYPHATGADLDLCVDVLGWTFLFDDQFDAGDGRERDALAVCAELTDLLWKGTAATAASPPIVVAFSDCWERMRAGMSDAWRRRTVHEWVDYLAGWPTKLADRAHGAVLDPAAHLRARHRTICCRPLFALAERVGGYEVPRRAWHSSRLDGMRFTTSDAVIGMNELHSFEKDRAQGHANLVLSLVHHGGLTGPEAVTRVCDLVQGSIESFLRLRSGLPELGRALGVEGAVLDRYADALSAFCRGYHDWGRGASRYTTRDHPGDLGLENLVARSSG | binds | 
1,8-cineole synthase from Streptomyces clavuligerus (enzyme, Streptomyces clavuligerus ATCC 27064, UniProt B5GMG2 1-330, looked up) MPAGHEEFDIPFPSRVNPFHARAEDRHVAWMRAMGLITGDAAEATYRRWSPAKVGARWFYLAQGEDLDLGCDIFGWFFAYDDHFDGPTGTDPRQTAAFVNRTVAMLDPRADPTGEHPLNIAFHDLWQRESAPMSPLWQRRAVDHWTQYLTAHITEATNRTRHTSPTIADYLELRHRTGFMPPLLDLIERVWRAEIPAPVYTTPEVQTLLHTTNQNINIVNDVLSLEKEEAHGDPHNLVLVIQHERQSTRQQALATARRMIDEWTDTFIRTEPRLPALCGRLGIPLADRTSLYTAVEGMRAAIRGNYDWCAETNRYAVHRPTGTGRATTPW |  | 2

From publication PMC5617326 (ACS Catalysis, 2017)
